The values that follow come from US20230293638A1 (Eli Lilly, published 2023).

This assay concerns the target human GLP-1 receptor (human, UniProt P43220 24-463). Kind of assay: cell-based or functional assay.

Numbering of substitutions follows the chain as printed.

B1: Peptide 213 (peptide)
peptide: YXEGTXTSDYSIXLDEKAQXEFIXYLIEGGPSSGAPPPS
modifications: Aib2; αMeF6; αMeL13; K17((2-[2-(2-Amino-ethoxy)-ethoxy]-acetyl)2-(γGlu)-CO-(CH2)16-CO2H); Aib20; D-Glu24; C-terminal NH2
Regarding B1, the “hGLPIR cAMP EC50 ratio” value amounted to 0.694.

B2: Peptide 214 (peptide)
peptide: B1 peptide
modifications: Aib2; αMeF(2F)6; αMeL13; K17((2-[2-(2-Amino-ethoxy)-ethoxy]-acetyl)2-CO-(CH2)16-CO2H); Aib20; D-Glu24; C-terminal NH2
Consider B2, for which the “hGLPIR cAMP EC50 ratio” value stood at 1.74.

B3: Peptide 223 (peptide)
peptide: B1 peptide with X24E, Y25X
modifications: Aib2; αMeF(2F)6; αMeL13; K17((2-[2-(2-Amino-ethoxy)-ethoxy]-acetyl)2-(γGlu)-CO-(CH2)18-CO2H); Aib20; αMeY25; C-terminal NH2
As for B3, the “hGLPIR cAMP EC50 ratio” value came to 0.962.

B4: Peptide 227 (peptide)
peptide: B1 peptide
modifications: Aib2; αMeF6; αMeL13; K17((2-[2-(2-Amino-ethoxy)-ethoxy]-acetyl)2-(γGlu)-CO-(CH2)18-CO2H); Aib20; D-Glu24; C-terminal NH2
In the case of B4, the “hGLPIR cAMP EC50 ratio” value stood at 1.07.

B5: Peptide 221 (peptide)
peptide: B1 peptide
modifications: Aib2; αMeF(2F)6; αMeL13; K17((2-[2-(2-Amino-ethoxy)-ethoxy]-acetyl)2-(γGlu)-CO-(CH2)16-CO2H); Aib20; D-Glu24; C-terminal NH2
With B5, the “hGLPIR cAMP EC50 ratio” value was found to be 0.795.

B6: Peptide 249 (peptide)
peptide: B1 peptide with E16X
modifications: not fully specified; Aib2; αMeF(2F)6; Nle13; Orn16; K17((2-[2-(2-Amino-ethoxy)-ethoxy]-acetyl)2-(γGlu)-CO-(CH2)16-CO2H); Aib20; D-Glu24; C-terminal NH2
In the case of B6, the “hGLPIR cAMP EC50 ratio” value was 0.778.

B7: Peptide 236 (peptide)
peptide: B1 peptide with E16X, Y25X
modifications: not fully specified; Aib2; αMeF(2F)6; αMeL13; Orn16; K17((2-[2-(2-Amino-ethoxy)-ethoxy]-acetyl)2-(γGlu)-CO-(CH2)16-CO2H); Aib20; D-Glu24; αMeY25; C-terminal NH2
B7: the “hGLPIR cAMP EC50 ratio” value worked out at 1.65.

B8: Peptide 248 (peptide)
peptide: B1 peptide with X13L, E16X
modifications: not fully specified; Aib2; αMeF(2F)6; Orn16; K17((2-[2-(2-Amino-ethoxy)-ethoxy]-acetyl)2-(γGlu)-CO-(CH2)16-CO2H); Aib20; D-Glu24; C-terminal NH2
Turning to B8, the “hGLPIR cAMP EC50 ratio” value was 0.8.

B9: Peptide 244 (peptide)
peptide: B1 peptide with Y10L, E16X, E21A, Y25X
modifications: not fully specified; Aib2; αMeF(2F)6; αMeL13; Orn16; K17((2-[2-(2-Amino-ethoxy)-ethoxy]-acetyl)2-(γGlu)-CO-(CH2)16-CO2H); Aib20; D-Glu24; αMeY25; C-terminal NH2
For the molecule B9, the “hGLPIR cAMP EC50 ratio” value came to 1.29.

B10: Peptide 241 (peptide)
peptide: B1 peptide with Y10V, E16X, E21T, Y25X
modifications: not fully specified; Aib2; αMeF(2F)6; αMeL13; Orn16; K17((2-[2-(2-Amino-ethoxy)-ethoxy]-acetyl)2-(γGlu)-CO-(CH2)16-CO2H); Aib20; D-Glu24; αMeY25; C-terminal NH2
With B10, the “hGLPIR cAMP EC50 ratio” value was determined as 1.89.

B11: Peptide 250 (peptide)
peptide: B1 peptide with E16X
modifications: Aib2; αMeF(2F)6; Aib13; Orn16; K17((2-[2-(2-Amino-ethoxy)-ethoxy]-acetyl)2-(γGlu)-CO-(CH2)18-CO2H); Aib20; D-Glu24; C-terminal NH2
B11: the “hGLPIR cAMP EC50 ratio” value is 0.985.

B12: Peptide 238 (peptide)
peptide: B1 peptide with Y10L, E16X, Y25X
modifications: not fully specified; Aib2; αMeF(2F)6; αMeL13; Orn16; K17((2-[2-(2-Amino-ethoxy)-ethoxy]-acetyl)2-(γGlu)-CO-(CH2)16-CO2H); Aib20; D-Glu24; αMeY25; C-terminal NH2
For the molecule B12, the “hGLPIR cAMP EC50 ratio” value amounted to 1.15.

B13: Peptide 230 (peptide)
peptide: B1 peptide with E16H
modifications: Aib2; αMeF(2F)6; αMeL13; K17((2-[2-(2-Amino-ethoxy)-ethoxy]-acetyl)2-(γGlu)-CO-(CH2)18-CO2H); Aib20; D-Glu24; C-terminal NH2
B13: the “hGLPIR cAMP EC50 ratio” value came out at 0.599.

B14: Peptide 243 (peptide)
peptide: B1 peptide with Y10L, E16X, E21T, Y25X
modifications: not fully specified; Aib2; αMeF(2F)6; αMeL13; Orn16; K17((2-[2-(2-Amino-ethoxy)-ethoxy]-acetyl)2-(γGlu)-CO-(CH2)16-CO2H); Aib20; D-Glu24; αMeY25; C-terminal NH2
On to B14, for which the “hGLPIR cAMP EC50 ratio” value stood at 1.22.

B15: Peptide 222 (peptide)
peptide: B1 peptide with Y25X
modifications: Aib2; αMeF(2F)6; αMeL13; K17((2-[2-(2-Amino-ethoxy)-ethoxy]-acetyl)2-(γGlu)-CO-(CH2)18-CO2H); Aib20; D-Glu24; αMeY25; C-terminal NH2
Turning to B15, the “hGLPIR cAMP EC50 ratio” value turned out to be 1.55.

B16: Peptide 242 (peptide)
peptide: B1 peptide with Y10V, E16X, E21A, Y25X
modifications: not fully specified; Aib2; αMeF(2F)6; αMeL13; Orn16; K17((2-[2-(2-Amino-ethoxy)-ethoxy]-acetyl)2-(γGlu)-CO-(CH2)16-CO2H); Aib20; D-Glu24; αMeY25; C-terminal NH2
B16: the “hGLPIR cAMP EC50 ratio” value came out at 1.96.
